Publication PMC12191924, “A new naphthalene-based fluorogenic substrate for cytochrome P450 4A11” (Biochemical Journal, 2025)

Columns and labels:
CYP1A2 = target: T1, CYP1A2 (Homo sapiens, UniProt P05177); assay type: biochemical
T1 sequence (P05177 1-516): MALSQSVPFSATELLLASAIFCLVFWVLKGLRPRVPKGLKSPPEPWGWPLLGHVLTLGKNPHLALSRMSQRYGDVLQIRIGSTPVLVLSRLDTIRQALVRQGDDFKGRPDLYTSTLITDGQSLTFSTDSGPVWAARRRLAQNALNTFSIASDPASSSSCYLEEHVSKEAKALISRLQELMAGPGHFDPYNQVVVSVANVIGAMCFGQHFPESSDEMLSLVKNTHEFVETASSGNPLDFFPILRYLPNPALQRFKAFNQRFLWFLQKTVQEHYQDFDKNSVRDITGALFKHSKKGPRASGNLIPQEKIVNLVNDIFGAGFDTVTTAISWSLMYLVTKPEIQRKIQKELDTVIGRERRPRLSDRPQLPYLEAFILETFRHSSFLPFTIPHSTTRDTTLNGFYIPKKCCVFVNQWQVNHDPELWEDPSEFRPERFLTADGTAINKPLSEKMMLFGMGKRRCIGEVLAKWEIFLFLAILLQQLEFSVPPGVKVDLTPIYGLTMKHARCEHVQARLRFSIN
From the text: (§1) Thus, we decided to probe the derivatives of methoxynaphthalene as CYP4A11 substrates. The simplest potential methoxynaphthalene-based P450 substrate is 6-methoxy-2-naphthoic acid, a close analog of naproxen, which is known to be metabolized by P450 enzymes. […] This molecule is apparently too small to be a CYP4A11 substrate. Thus, we searched commercially available derivatives of methoxynaphthalene to find a compound with a longer carboxylic acid chain substituent in the naphthalene ring. This search identified MONACRA (Figure 1) as a potential CYP4A11 substrate. […] We attempted to design a fluorimetric assay of its metabolism suitable for high-throughput studies in HLM.

CYP4A11 = target: T2, CYP4A11 (Homo sapiens, UniProt Q02928); test: Probing 6-methoxy-2-naphthoic acid as a P450 substrate (data not shown); assay type: biochemical
T2 sequence (Q02928 5-519): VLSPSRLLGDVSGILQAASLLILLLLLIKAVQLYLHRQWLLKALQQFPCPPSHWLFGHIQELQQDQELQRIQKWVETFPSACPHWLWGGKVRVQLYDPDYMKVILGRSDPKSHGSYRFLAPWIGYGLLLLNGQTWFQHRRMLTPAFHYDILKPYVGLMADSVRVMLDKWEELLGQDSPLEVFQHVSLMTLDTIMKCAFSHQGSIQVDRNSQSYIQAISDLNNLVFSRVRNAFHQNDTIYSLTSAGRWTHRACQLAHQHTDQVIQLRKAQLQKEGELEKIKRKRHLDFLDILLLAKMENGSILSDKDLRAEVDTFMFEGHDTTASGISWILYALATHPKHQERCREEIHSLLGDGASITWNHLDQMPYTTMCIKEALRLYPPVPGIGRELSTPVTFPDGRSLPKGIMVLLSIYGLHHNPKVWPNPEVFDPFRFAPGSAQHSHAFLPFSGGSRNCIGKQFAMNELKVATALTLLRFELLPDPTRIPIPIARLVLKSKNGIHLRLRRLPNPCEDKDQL
From the text: as §1

[1] = substrate: COc1ccc2cc(C=CC(=O)O)ccc2c1; test: MONACRA demethylation by recombinant CYP1A2 in Supersomes, high-throughput fluorimetric assay; assay type: biochemical, human; conditions: other: CYP1A2 Supersomes; substrate inhibition equation; ± = confidence interval P=0.05
Protocol: (§2) Based on these observations, we developed a high-throughput automated assay applicable for studying SSPs of MONACRA metabolism by microsomal P450 enzymes. In this procedure, the incubation mixtures containing an NADPH-generating system and various substrate concentrations are placed in a multiwell plate and preincubated at 30°C in a thermostated shaker. The reaction is started by adding microsomal suspension to the final concentration of 0.3–1 mg/ml of microsomal protein or 0.02–0.1 µM of recombinant P450 enzymes in Supersomes. Following the incubation for 20 min at 30°C, the reaction is quenched by adding trichloroacetic acid (final concentration […]). After supplementing the wells with Na-glycine buffer (pH 10.4, final concentration 2.1 M), the plates are subjected to scanning the fluorescence spectra with excitation at 375 nm. This assay, which is described in detail in Materials and Methods, allows reliable detection of the concentrations of HONACRA as low as 0.1 µM.
(§3) We used the high-throughput activity assay described above to probe MONACRA metabolism by 16 human microsomal P450 enzymes, namely CYP1A2, CYP2A6, CYP2B6, CYP2C8, CYP2C9, CYP2C19, CYP2D6, CYP2E1, CYP2J2, CYP3A4, CYP3A5, CYP4A11, CYP4F2, CYP4F3A, CYP4F3B, and CYP4F12. […]

[2] = substrate: COc1ccc2cc(C=CC(=O)O)ccc2c1; test: MONACRA demethylation by recombinant CYP2C8 in Supersomes, high-throughput fluorimetric assay; assay type: biochemical, human; conditions: other: CYP2C8 Supersomes; Michaelis–Menten fit
Protocol: as §2, §3

**Q.** Which results are given for `COc1ccc2cc(C(=O)O)ccc2c1` [6-methoxy-2-naphthoic acid]?
**A.** O-demethylation by P450 enzymes (CYP1A2): undergoes O-demethylation catalyzed predominantly by CYP1A2; metabolism by CYP4A11 (CYP4A11): not metabolized by CYP4A11

B1: CYP1A2 (Homo sapiens) (protein)
chain: ALSQSVPFSATELLLASAIFCLVFWVLKGLRPRVPKGLKSPPEPWGWPLLGHVLTLGKNPHLALSRMSQRYGDVLQIRIGSTPVLVLSRLDTIRQALVRQGDDFKGRPDLYTSTLITDGQSLTFSTDSGPVWAARRRLAQNALNTFSIASDPASSSSCYLEEHVSKEAKALISRLQELMAGPGHFDPYNQVVVSVANVIGAMCFGQHFPESSDEMLSLVKNTHEFVETASSGNPLDFFPILRYLPNPALQRFKAFNQRFLWFLQKTVQEHYQDFDKNSVRDITGALFKHSKKGPRASGNLIPQEKIVNLVNDIFGAGFDTVTTAISWSLMYLVTKPEIQRKIQKELDTVIGRERRPRLSDRPQLPYLEAFILETFRHSSFLPFTIPHSTTRDTTLNGFYIPKKCCVFVNQWQVNHDPELWEDPSEFRPERFLTADGTAINKPLSEKMMLFGMGKRRCIGEVLAKWEIFLFLAILLQQLEFSVPPGVKVDLTPIYGLTMKHARCEHVQARLRFSIN
notes: purchased Gentest (Supersomes), now a part of Discovery Life Sciences; CYP1A2 is not in the lot list; host or cells: insect cells, recombinant baculovirus
**Q.** Which Km [1] does the source give for B1 here?
**A.** Its Km is 161 ± 34 µM.

**Q.** What about the kcat [1] of the same molecule?
**A.** The kcat was 0.733 ± 0.1 s⁻¹.

B2: CYP2C8 (Homo sapiens) (protein)
chain: MEPFVVLVLCLSFMLLFSLWRQSCRRRKLPPGPTPLPIIGNMLQIDVKDICKSFTNFSKVYGPVFTVYFGMNPIVVFHGYEAVKEALIDNGEEFSGRGNSPISQRITKGLGIISSNGKRWKEIRRFSLTTLRNFGMGKRSIEDRVQEEAHCLVEELRKTKASPCDPTFILGCAPCNVICSVVFQKRFDYKDQNFLTLMKRFNENFRILNSPWIQVCNNFPLLIDCFPGTHNKVLKNVALTRSYIREKVKEHQASLDVNNPRDFIDCFLIKMEQEKDNQKSEFNIENLVGTVADLFVAGTETTSTTLRYGLLLLLKHPEVTAKVQEEIDHVIGRHRSPCMQDRSHMPYTDAVVHEIQRYSDLVPTGVPHAVTTDTKFRNYLIPKGTTIMALLTSVLHDDKEFPNPNIFDPGHFLDKNGNFKKSDYFMPFSAGKRICAGEGLARMELFLFLTTILQNFNLKSVDDLKNLNTTAVTKGIVSLPPSYQICFIPV
notes: purchased Gentest (Huntsville, AL), now a part of Discovery Life Sciences lot 81760; host or cells: insect cells, recombinant baculovirus
**Q.** How did the Km [2] turn out when B2 was run?
**A.** The Km was 456 ± 188 µM.

**Q.** What about the kcat [2] of the same molecule?
**A.** Its kcat is 0.0267 ± 0.0117 s⁻¹.
